Protein stability index data for 94 variants are collected here from the supplement of paper PMC10567573.

To fix the notation:
B1: KRT18 (parent)
chain: RVRSLETENRRLESKIREHLEKKG
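Also: lentivirally expressed fusions sorted by FACS into six bins by GFP to DsRed ratio, PSI derived from sequencing read proportions per bin multiplied by bin number.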

In this series the parent is B1. Put plainly: protein stability index of a GFP-peptide fusion (GPS, HEK-293T) (PSI 1-6); higher = more stable. To be noted: c terminus: a fixed tail appended.
In the case of RVRSLEYENRRLESKIREHLEKKG [T7Y], the protein stability index was 4.47.

On to RVRSLEVENRRLESKIREHLEKKG [T7V], for which the protein stability index is 3.82.

Consider RVRSLETENRRLEAKIREHLEKKG [S14A], for which the protein stability index was found to be 4.6.

Consider RVRSLETENRRLEQKIREHLEKKG [S14Q], for which the protein stability index was found to be 4.99.

On to RVRSLETENRRLEEKIREHLEKKG [S14E], for which the protein stability index came to 4.78.

Turning to RVRSLETENRRLEVKIREHLEKKG [S14V], the protein stability index is 4.16.

In the case of RVRSLETENRRLEKKIREHLEKKG [S14K], the protein stability index was 4.19.

Turning to RVRSLETENRRLEIKIREHLEKKG [S14I], the protein stability index worked out at 4.38.

In the case of RVRSLETENRRLEGKIREHLEKKG [S14G], the protein stability index was 4.96.

Take RVRSLETENRRLETKIREHLEKKG [S14T]: the protein stability index was 4.47.

With RVRSLETENRRLEWKIREHLEKKG [S14W], the protein stability index amounted to 3.98.

Consider RVRSLETENRRLEHKIREHLEKKG [S14H], for which the protein stability index worked out at 4.92.

Turning to RVRSLETENRRLENKIREHLEKKG [S14N], the protein stability index amounted to 3.68.

Regarding RVRSLETENRRLECKIREHLEKKG [S14C], the protein stability index was 3.84.

On to RVRSLETENRRLEYKIREHLEKKG [S14Y], for which the protein stability index amounted to 4.24.

As for RVRSLETENRRLELKIREHLEKKG [S14L], the protein stability index is 4.59.

Take RVRSLETENRRLEPKIREHLEKKG [S14P]: the protein stability index stood at 4.86.

Turning to RVRSLETENRRLHSKIREHLEKKG [E13H], the protein stability index came to 4.21.

For the variant RVRSLETENRRLWSKIREHLEKKG [E13W], the protein stability index was 3.85.

On to RVRSLETENRRLTSKIREHLEKKG [E13T], for which the protein stability index turned out to be 4.1.

Take RVRSLETENRRLISKIREHLEKKG [E13I]: the protein stability index came to 2.37.

As for RVRSLETENRRLRSKIREHLEKKG [E13R], the protein stability index was 3.99.

Regarding RVRSLETENRRLSSKIREHLEKKG [E13S], the protein stability index amounted to 3.91.

RVRSLETENRRLDSKIREHLEKKG [E13D]: the protein stability index worked out at 2.98.

Take RVRSLETENRRLFSKIREHLEKKG [E13F]: the protein stability index amounted to 2.16.

Turning to RVRSLETENRRLKSKIREHLEKKG [E13K], the protein stability index is 4.84.

With RVRSLETENRRLQSKIREHLEKKG [E13Q], the protein stability index came to 3.95.

For RVRSLETENRRLASKIREHLEKKG [E13A], the protein stability index stood at 4.22.

Consider RVRSLETENRRLGSKIREHLEKKG [E13G], for which the protein stability index amounted to 4.75.

RVRSLETENRRLYSKIREHLEKKG [E13Y]: the protein stability index came to 3.05.

RVRSLETENRRLNSKIREHLEKKG [E13N]: the protein stability index stood at 4.89.

For RVRSLETENRRLMSKIREHLEKKG [E13M], the protein stability index is 3.26.

With RVRSLETENRRLCSKIREHLEKKG [E13C], the protein stability index is 4.3.

Regarding RVRSLETENRRLPSKIREHLEKKG [E13P], the protein stability index came out at 4.33.

In the case of RVRSLETENRRLVSKIREHLEKKG [E13V], the protein stability index came to 3.74.

With RVRSLETENNRLESKIREHLEKKG [R10N], the protein stability index is 4.69.

For RVRSLETENYRLESKIREHLEKKG [R10Y], the protein stability index came to 4.94.

Regarding RVRSLETENERLESKIREHLEKKG [R10E], the protein stability index was determined as 4.79.

For RVRSLETENARLESKIREHLEKKG [R10A], the protein stability index amounted to 4.16.

Take RVRSLETENDRLESKIREHLEKKG [R10D]: the protein stability index was 4.3.

Take RVRSLETENFRLESKIREHLEKKG [R10F]: the protein stability index stood at 4.76.

For the variant RVRSLETENKRLESKIREHLEKKG [R10K], the protein stability index was 4.36.

For the variant RVRSLETENIRLESKIREHLEKKG [R10I], the protein stability index came to 4.42.

As for RVRSLETENLRLESKIREHLEKKG [R10L], the protein stability index was 4.49.

Regarding RVRSLETENSRLESKIREHLEKKG [R10S], the protein stability index was 4.88.

Consider RVRSLETENGRLESKIREHLEKKG [R10G], for which the protein stability index stood at 4.68.

For the variant RVRSLETENPRLESKIREHLEKKG [R10P], the protein stability index was determined as 5.08.

In the case of RVRSLETENVRLESKIREHLEKKG [R10V], the protein stability index is 5.08.

In the case of RVRSLETENMRLESKIREHLEKKG [R10M], the protein stability index came out at 5.26.

With RVRSLETENHRLESKIREHLEKKG [R10H], the protein stability index stood at 4.74.

RVRSLETENTRLESKIREHLEKKG [R10T]: the protein stability index was determined as 4.71.

For the variant RVRSLETENCRLESKIREHLEKKG [R10C], the protein stability index turned out to be 4.

For the variant RVRSLETENRRNESKIREHLEKKG [L12N], the protein stability index was 5.35.

RVRSLETENRRMESKIREHLEKKG [L12M]: the protein stability index came to 3.02.

Consider RVRSLETENRRYESKIREHLEKKG [L12Y], for which the protein stability index is 4.91.

Regarding RVRSLETENRRHESKIREHLEKKG [L12H], the protein stability index is 5.05.

With RVRSLETENRRGESKIREHLEKKG [L12G], the protein stability index is 5.35.

As to RVRSLETENRRPESKIREHLEKKG [L12P], the protein stability index was 5.41.

RVRSLETENRRVESKIREHLEKKG [L12V]: the protein stability index was determined as 4.69.

RVRSLETENRRKESKIREHLEKKG [L12K]: the protein stability index was determined as 5.49.

As to RVRSLETENRRIESKIREHLEKKG [L12I], the protein stability index worked out at 4.77.

As to RVRSLETENRRTESKIREHLEKKG [L12T], the protein stability index stood at 5.22.

Turning to RVRSLETENRREESKIREHLEKKG [L12E], the protein stability index came to 5.88.

Regarding RVRSLETENRRCESKIREHLEKKG [L12C], the protein stability index worked out at 4.78.

For the variant RVRSLETENRRDESKIREHLEKKG [L12D], the protein stability index came to 4.21.

As to RVRSLETENRRQESKIREHLEKKG [L12Q], the protein stability index is 5.19.

In the case of RVRSLETENRRLESKIRECLEKKG [H19C], the protein stability index is 3.82.

In the case of RVRSLETENRRLESKIREDLEKKG [H19D], the protein stability index is 5.22.

With RVRSLETENRRLESKIRETLEKKG [H19T], the protein stability index worked out at 5.01.

As for RVRSLETENRRLESKIREPLEKKG [H19P], the protein stability index was determined as 5.53.

Turning to RVRSLETENRRLESKIREFLEKKG [H19F], the protein stability index is 4.

Regarding RVRSLETENRRLESKIREVLEKKG [H19V], the protein stability index was 4.49.

Regarding RVRSLETENRRLESKIREWLEKKG [H19W], the protein stability index was 2.25.

Turning to RVRSLETENRRLESKIREQLEKKG [H19Q], the protein stability index worked out at 5.04.

On to RVRSLETENRRLESKIREGLEKKG [H19G], for which the protein stability index is 5.48.

As for RVRSLETENRRLESKIREELEKKG [H19E], the protein stability index came out at 5.26.

On to RVRSLETENRRLESKIREALEKKG [H19A], for which the protein stability index came to 4.46.

With RVRSLETENRRLESKIREILEKKG [H19I], the protein stability index amounted to 4.03.

As to RVRSLETENRRLESKIRESLEKKG [H19S], the protein stability index was found to be 4.79.

Turning to RVRSLETENRRLESKIRENLEKKG [H19N], the protein stability index was found to be 4.78.

Regarding RVRSLETENRNLESKIREHLEKKG [R11N], the protein stability index amounted to 4.35.

As for RVRSLETENRALESKIREHLEKKG [R11A], the protein stability index was determined as 4.43.

Consider RVRSLETENRVLESKIREHLEKKG [R11V], for which the protein stability index is 4.79.

RVRSLETENRILESKIREHLEKKG [R11I]: the protein stability index amounted to 4.47.

On to RVRSLETENRSLESKIREHLEKKG [R11S], for which the protein stability index is 5.33.

Take RVRSLETENRYLESKIREHLEKKG [R11Y]: the protein stability index was found to be 3.33.

With RVRSLETENRTLESKIREHLEKKG [R11T], the protein stability index worked out at 4.94.

As to RVRSLETENRELESKIREHLEKKG [R11E], the protein stability index is 4.73.

As for RVRSLETENRDLESKIREHLEKKG [R11D], the protein stability index was 5.08.

For the variant RVRSLETENRCLESKIREHLEKKG [R11C], the protein stability index is 4.96.

Take RVRSLETENRGLESKIREHLEKKG [R11G]: the protein stability index came to 3.96.

In the case of RVRSLETENRHLESKIREHLEKKG [R11H], the protein stability index was 4.91.

In the case of RVRSLETENRLLESKIREHLEKKG [R11L], the protein stability index was determined as 4.31.

Consider RVRSLETENRWLESKIREHLEKKG [R11W], for which the protein stability index is 3.69.
